Results from patent US8586538B2, “Method of treating a patient suffering from a bleeding disorder comprising administering an antibody against the A3-C1 of FVIII” (Stichting Sanquin Bloedvoorziening, priority 2002, dated 2013).

How the values were obtained:
[1] = target: T1, interaction between FVIII light chain and LRP (Homo sapiens, UniProt P00451); assay: SPR competition: FVIII light chain binding to immobilized LRP; conditions: FVIII light chain 50 nM; scFv 20-500 nM
T1 construct: from tissue; host or cells: FVIII light chain from plasma; LRP from placenta
T1 sequence (P00451 1668-2351 limits assumed): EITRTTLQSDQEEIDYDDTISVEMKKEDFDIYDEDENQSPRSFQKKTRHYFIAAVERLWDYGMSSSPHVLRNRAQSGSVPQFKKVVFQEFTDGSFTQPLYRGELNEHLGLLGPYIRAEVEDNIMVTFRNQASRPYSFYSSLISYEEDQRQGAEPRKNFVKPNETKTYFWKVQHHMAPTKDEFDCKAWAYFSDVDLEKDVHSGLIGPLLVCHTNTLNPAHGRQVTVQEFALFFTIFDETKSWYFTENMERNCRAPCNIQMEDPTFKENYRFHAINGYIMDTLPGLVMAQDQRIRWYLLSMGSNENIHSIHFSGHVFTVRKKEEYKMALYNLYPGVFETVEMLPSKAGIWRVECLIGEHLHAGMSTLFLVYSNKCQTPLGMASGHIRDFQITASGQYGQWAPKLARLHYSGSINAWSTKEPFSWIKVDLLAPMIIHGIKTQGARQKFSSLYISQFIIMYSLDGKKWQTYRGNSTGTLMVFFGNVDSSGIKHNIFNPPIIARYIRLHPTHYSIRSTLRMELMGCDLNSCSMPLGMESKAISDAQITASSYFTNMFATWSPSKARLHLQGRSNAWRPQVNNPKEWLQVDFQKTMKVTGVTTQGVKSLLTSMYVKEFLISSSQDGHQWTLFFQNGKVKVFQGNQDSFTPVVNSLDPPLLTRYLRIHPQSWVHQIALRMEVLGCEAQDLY
Method: FIG. 4. Effect of scFv antibody fragments on the interaction between FVIII light chain and LRP. A, FVIII light chain (LCh) (25 nM) was incubated with immobilized LRP cluster II (1 pmol/well) in a volume of 50 μl in 150 mM NaCl, 5 mM CaCl2, 1% (w/v) HSA, 0.1% Tween® 20, and 50 mM Tris (pH 7.4) in the presence of various concentrations (0-100 nM) of scFv KM41 (closed circles) or scFv KM36 (open circles) for 2 h at 37° C. After washing with the same buffer, bound FVIII light chain was quantified by incubation with peroxidase-conjugated anti-FVIII antibody CLB-CAg 12 for 15 min at 37° C. Residual binding is expressed as the percentage of binding in the absence of competitor and is corrected for nonspecific binding (less than 5% relative to binding to LRP cluster II-immobilized wells). […] Binding was assessed in the absence (curve 1) or in the presence of increasing concentrations of scFv KM41 (20, 60, 300, 500 nM, curves 2-5, respectively). […]
The kinetics of protein interactions was determined by surface plasmon resonance (SPR) analysis, employing a BIAcore™2000 biosensor system (Biacore AS, Uppsala, Sweden). […] Association of analyte was assessed in 150 mM NaCl, 2 mM CaCl2, 0.005% (v/v) Tween® 20, and 20 mM Hepes (pH 7.4) for 2 min, at a flow rate of 20 μl/min at 25° C. […] Equilibrium dissociation constants (kd) were calculated from the ratio koff/kon. […]

FVIIIa-FIXa complex = FVIIIa-FIXa complex (Homo sapiens, UniProt P00451+P00740); conditions: by interfering with the assembly of the FVIIIa-FIXa complex; cited from earlier work
FVIIIa-FIXa complex, sequence (P00740 47-191 limits assumed, one chain of several): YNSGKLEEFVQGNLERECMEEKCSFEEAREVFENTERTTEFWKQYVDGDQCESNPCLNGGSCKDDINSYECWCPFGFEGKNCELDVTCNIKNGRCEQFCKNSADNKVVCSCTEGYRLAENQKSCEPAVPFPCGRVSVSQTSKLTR

B1: scFv KM41: scFv antibody fragment directed against FVIII region Arg^1803-Lys^1818 (protein)
scFv: QVQLLQSAADVKKPGASVKVSCTASGYIFTSYDIDWVRQATGQGLEWMGWMNPNSGNAGFAQKFKGRLTLTRDTSTSTAYMELRRLESEDTAVYYCARSTPHSYSGSGLPPTSDSWGQGTLVTVSSGGGGSGGGGSGGGGSEIVLTQSPGTLSLSPGERATLSCRASQSVSSSFLGWYQQKPGQAPRLLIYGASSRATGIPDRFSGSGSGTDFTLTISRLEPEDFAVYYCQQYGISPLTFGGGTKLEIKRAAAEQKLISEEDLNGAAHHHHHH
In the case of B1, the “Effect on association of FVIII light chain with immobilized LRP” value [1] is given as “only partially inhibits” and the “Inhibition of FVIII procoagulant activity” value (FVIIIa-FIXa complex) is given as “effective inhibitors”.
